B1: cwp2-60/-31 (dsDNA)
DNA 1: TAGACTGATGCTGTAGAGGTCAACAGATAA
DNA 2: TTATCTGTTGACCTCTACAGCATCAGTCTA
B2: 18S-30/-1 (dsDNA)
DNA 1: GGCGCCCGGCCCGCGGCGCCCGCGCCCGGC
DNA 2: GCCGGGCGCGGGCGCCGCGGGCCGGGCGCC
B3: cwp1-45/-1 (dsDNA)
DNA 1: GTTTACAACTCTCAGATCAAGAAACACAGAAATAAAATATCAGGG
DNA 2: CCCTGATATTTTATTTCTGTGTTTCTTGATCTGAGAGTTGTAAAC
B4: ran-51/-20 (dsDNA)
DNA 1: TAAAATAAATTAAATCGAAATTAAAACTTTAA
DNA 2: TTAAAGTTTTAATTTCGATTTAATTTATTTTA
B5: cwp1-90/-46 (dsDNA)
DNA 1: CTGGCTAACAGTCTACAGTCTACAATTTACAGTATACAATCTACA
DNA 2: TGTAGATTGTATACTGTAAATTGTAGACTGTAGACTGTTAGCCAG
B6: cwp3-30/+10 (dsDNA)
DNA 1: GTCTTTCCCAAAAAATAAGTTACTACTGATATGTTTTCTC
DNA 2: GAGAAAACATATCAGTAGTAACTTATTTTTTGGGAAAGAC
B7: 18S-60/-31 (dsDNA)
DNA 1: CCGTGCCAGGCGGCGGCCCCCGCGCAGGGA
DNA 2: TCCCTGCGCGGGGGCCGCCGCCTGGCACGG

How the values were obtained:
[1] = molecular target: T1, TOP3β (DNA topoisomerase IIIβ) (Giardia lamblia WB, UniProt A8B577 1-973); experiment: EMSA; strong; EMSA: 0.02 pmol 32P probe, 5 ng protein, 20 µl, 0.5 µg poly(dI-dC), 15 min at room temperature, 6% acrylamide gel; buffer, salt and pH not given (cited reference); conditions: protein: recombinant; tags: C-terminal V5 and His; label: 5'-32P
T1 sequence: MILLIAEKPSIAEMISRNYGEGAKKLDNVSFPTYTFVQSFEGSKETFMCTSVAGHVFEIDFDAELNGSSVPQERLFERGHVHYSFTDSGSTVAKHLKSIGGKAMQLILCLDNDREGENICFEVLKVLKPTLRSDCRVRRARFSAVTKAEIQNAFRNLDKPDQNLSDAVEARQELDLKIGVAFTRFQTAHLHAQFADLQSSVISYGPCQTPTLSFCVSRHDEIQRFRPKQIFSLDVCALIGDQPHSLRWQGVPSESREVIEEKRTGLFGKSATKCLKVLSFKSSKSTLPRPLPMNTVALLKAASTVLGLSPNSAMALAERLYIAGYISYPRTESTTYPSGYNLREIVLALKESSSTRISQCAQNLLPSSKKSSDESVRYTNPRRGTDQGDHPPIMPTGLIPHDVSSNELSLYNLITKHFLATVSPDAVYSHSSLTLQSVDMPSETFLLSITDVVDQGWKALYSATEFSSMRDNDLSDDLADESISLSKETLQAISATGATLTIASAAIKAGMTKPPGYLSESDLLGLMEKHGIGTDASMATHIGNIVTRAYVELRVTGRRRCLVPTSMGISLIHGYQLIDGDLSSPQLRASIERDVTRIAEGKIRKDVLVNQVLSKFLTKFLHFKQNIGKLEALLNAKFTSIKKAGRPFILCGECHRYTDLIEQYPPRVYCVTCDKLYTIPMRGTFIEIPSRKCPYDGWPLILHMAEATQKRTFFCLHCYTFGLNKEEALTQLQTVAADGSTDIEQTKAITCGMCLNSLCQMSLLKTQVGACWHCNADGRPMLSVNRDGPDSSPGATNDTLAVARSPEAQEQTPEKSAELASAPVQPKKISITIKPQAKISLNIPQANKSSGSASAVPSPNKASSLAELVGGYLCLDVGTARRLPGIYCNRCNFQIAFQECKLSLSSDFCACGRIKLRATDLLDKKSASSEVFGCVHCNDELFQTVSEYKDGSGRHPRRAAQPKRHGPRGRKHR

[2] = molecular target: T1, TOP3β (DNA topoisomerase IIIβ); experiment: EMSA; EMSA: 0.02 pmol 32P probe, 5 ng protein, 20 µl, 0.5 µg poly(dI-dC), 15 min at room temperature, 6% acrylamide gel; buffer, salt and pH not given (cited reference); conditions: protein: recombinant, tags: C-terminal V5 and His
[3] = molecular target: T1, TOP3β (DNA topoisomerase IIIβ); experiment: EMSA; supershifted by anti-TOP3β; EMSA: 0.02 pmol 32P probe, 5 ng protein, 20 µl, 0.5 µg poly(dI-dC), 15 min at room temperature, 6% acrylamide gel; buffer, salt and pH not given (cited reference); conditions: protein: recombinant, tags: C-terminal V5 and His

Binder	binding result ([2]; label: 5'-32P)	binding result ([2]; label: 32P)	other results
B1	–	–	binding result [1]: binds
B2	no binding	–	–
B3	–	–	binding result ([3]; label: 5'-32P): binds
GTTTACAACTCTCAGATCAAGAAACACAGAAATAAAATATCAGGG (ssDNA) [cwp1-45/-1F]	–	binds	–
B4	binds	–	–
CTGGCTAACAGTCTACAGTCTACAATTTACAGTATACAATCTACA (ssDNA) [cwp1-90/-46F]	–	binds	–
B5	binds	–	–
GTCTTTCCCAAAAAATAAGTTACTACTGATATGTTTTCTC (ssDNA) [cwp3-30/+10F]	–	–	binding result ([3]; label: 32P): binds
B6	–	–	binding result [1]: binds
TAGACTGATGCTGTAGAGGTCAACAGATAA (ssDNA) [cwp2-60/-31F]	–	binds	–
B7	no binding	–	–
GGCGCCCGGCCCGCGGCGCCCGCGCCCGGC (ssDNA) [18S-30/-1F]	–	no binding	–

Source: paper PMC7058931, “DNA topoisomerase IIIβ promotes cyst generation by inducing cyst wall protein gene expression in Giardia lamblia”
